These results are taken from publication doi:10.1101/2023.02.02.526371 (bioRxiv, 2023).

The assay concerns the target T1, recombinant PIF3-GST (Arabidopsis thaliana, UniProt O80536 1-524).
T1 sequence (looked up): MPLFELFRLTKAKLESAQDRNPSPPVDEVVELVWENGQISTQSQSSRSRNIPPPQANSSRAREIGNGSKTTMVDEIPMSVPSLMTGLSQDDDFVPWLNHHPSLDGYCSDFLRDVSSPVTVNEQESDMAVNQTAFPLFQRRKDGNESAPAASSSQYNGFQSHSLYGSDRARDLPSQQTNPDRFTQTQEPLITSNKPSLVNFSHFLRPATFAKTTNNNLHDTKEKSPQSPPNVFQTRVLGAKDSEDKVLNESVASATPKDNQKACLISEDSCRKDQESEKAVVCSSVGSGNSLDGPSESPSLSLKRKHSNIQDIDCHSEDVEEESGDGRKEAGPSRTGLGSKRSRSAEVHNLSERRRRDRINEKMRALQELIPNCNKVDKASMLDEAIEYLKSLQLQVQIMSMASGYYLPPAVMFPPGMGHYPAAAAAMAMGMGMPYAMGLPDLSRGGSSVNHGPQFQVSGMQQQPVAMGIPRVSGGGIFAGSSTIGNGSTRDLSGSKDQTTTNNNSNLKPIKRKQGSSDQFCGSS
Put plainly: pull-down.

B1: His-tagged kinase domain of FER (518-816 amino acids, FER-KD) (domain or fragment)
chain: not shown
Consider B1, for which the binding result was “binds”.
